This data set is classed as cell-based, P. pastoris. The method, then:
Precultures of P. pastoris transformants were prepared in buffered complex glycerol media (BMGY). BMGY contained: 10 g/l yeast extract, 20 g/l peptone, 3.4 g/l yeast nitrogen base, 10 g/l ammonium sulfate, 100 mM potassium phosphate (pH 6), 0.4 mg/l biotin and 1% (v/v) glycerol. Erlenmeyer flasks (500 ml) containing 50 ml BMGY media were inoculated with single colonies of 24 h old YPD-agar cultures of P. pastoris KM71 mut^s3/CYP505E3 and incubated at 30° C. and 225 rpm for 24 h. The cultures were harvested using pre-weighed centrifuge tubes at 3000 g for 5 min and stored on ice until further use.
The main cultures for expression were prepared in buffered complex methanol media (BMMY) containing 10 g/l yeast extract, 20 g/l peptone, 3.4 g/l yeast nitrogen base, 10 g/l ammonium sulfate, 100 mM potassium phosphate (pH 6), 0.4 mg/l biotin and 0.5 or 1% (v/v) methanol. Harvested cells from precultures were resuspended in BMMY media to final concentration of 1 g WC per 40 ml (appx. 25 g/l). The resuspended cultures (100 ml) were transferred to 500 ml Erlenmeyer flasks and incubated at 25° C. and 225 rpm for 24 h. The cultures were then harvested at 3000 g for 5 min using pre-weighed centrifuge tubes.
Different transformants of Pichia pastoris KM71 harbouring the CYP505 genes for SEQ ID Nos 1 to 7 and 9 to 12 were grown and harvested as described above. The harvested cells were resuspended to give 1 g wet cell weight in 40 ml MOPS buffer (200 mM, 100 mM glucose, 100 mM glycerol, pH 8) and 1 ml aliquots of these cell suspensions were transferred to 40 ml amber vials. Dodecane, 1-dodecanol and 1-tetradecanol were added neat to these cell suspensions to give final concentrations of 200 mM in the case of the alcohols and 1 M in the case of dodecane while in the case of dodecanoic acid 20 μl of a 500 mM stock solution (in DMSO) was added to give a final concentration of 10 mM. Transformants harbouring the CYP505 genes for SEQ ID Nos 1 to 4 were tested for the biotransformation of 1-dodecanol, 1-tetradecanol, dodecanoic acid, tetradecanoic acid and dodecane, while those harbouring the CYP505 genes for SEQ ID Nos 5 to 7 and 9 to 12 were only tested for the biotransformation of 1-dodecanol and dodecanoic acid. The biotransformations were incubated at 25° C. and 225 rpm for 24 h. Extractions were performed using ethyl acetate (500 μl×2). The extracts were analyzed using GC/MS.

B1: CYP505Ao: CYP505 cytochrome P450 monooxygenase from Aspergillus oryzae, SEQ ID No 9 (protein, listed as Aspergillus oryzae)
chain: MRQNDNEKQICPIPGPQGLPFLGNILDIDLDNGTMSTLKIAKTYYPIFKFTFAGETSIVINSVALLSELCDETRFHKHVSFGLELLRSGTHDGLFTAYDHEKNWGLAHRLLVPAFGPLRIREMFPQMHDIAQQLCLKWQRYGPRRPLNLVDDFTRTTLDTIALCAMGYRFNSFYSEGDFHPFIKSMVRFLKEAETQATLPSFISNLRVRAKRRTQLDIDLMRTVCREIVTERRQTNLDHKNDLLDTMLTSRDSLSGDALSDESIIDNILTFLVAGHETTSGLLSFAVYYLLTTPDAMAKAAHEVDDVVGDQELTIEHLSMLKYLNAILRETLRLMPTAPGFSVTPYKPEIIGGKYEVKPGDSLDVFLAAVHRDPAVYGSDADEFRPERMFDEHFQKLPANSWKPFGNGKRSCIGRAFAWQEALMILALILQSFSLDLVDRGYTLKLKESLTIKPDNLWAYATPRPGRNVLHARLALQTNSTHPEGLMSLKHETVESQPATILYGSNTGTCEALAHRLAIEMSSKGRFVCKVQPMDEIEHRRLPRGQPVIIVTGSYDGRPPENARHFVKWLQSLEGNDLEGIQYAVFGCGLPGHHDWSTTFYKIPTLIDTIMAEHGGARLAPRGSADTAEDDPFVELESWSERRVWPGLEAAFDLVRHNSSDGTGKSTRITIRSPYTLRAAHETAVVHQVRVLTSAETTKKVHVELALPDTINYRPGDHLAILPLNSRQSVQRVLSLFQIGSDTILYITSSSATSLPTDTPISAHDLLSGYVELNQVATPTSLRSLAAKATDEKTAEYLEALATDRYTTEVRGNHLSLLDILESYSVPSIEIQHYIQMLPPLRPRQYTISSSPRLNRGQASLTVSVMERADIGGPRNCAGVASNYLASCTPGSILRVSLRHANPDFRLPDESCSHPIIMVAAGSGIAPFRAFVQERSVRQKEGIILPPAFLFFGCRRADLDDLYREELDAFEEQGVVTLFRAFSRAQSESHGCKYVQDLLWMERVRVKTLWGQDAKVFVCGSVRMNEGVKAIISKIVSPTPTEELARRYIAETFI
Regarding B1, the “ω-7 hydroxylase activity C12FA” value is on record as “−” and the “ω-7 hydroxylase activity C12ol” value was “−”.

B2: CYP505Om: CYP505 cytochrome P450 monooxygenase from Oidiodendron maius, SEQ ID No 11 (protein, listed as Oidiodendron maius)
chain: MTKKNHALIPIPGPSVWPLLGNLFDIDTEHGLASVLEMGRSYGDIFQLVLGGNKLVFLQTHALFDEVCDESRFCKVVVSGLGNLRAGVNDGLFTAHDGEHNWGVAHRIIMPIFGPIKIRETLGGMKDVCQELSLKWARYGPDHRIDIAGDLTRLTLDTIAFCTMGYRFNSFYRNSDVHPFVKSMVGFLREADKSSMIPEYLNAFRWKARRSFLGDIASMREMSMMILNLRRGNPSDRDDLLNALLHGRDPKTGEGMSDESIINNLITFLVAGHETTSGALSFVFYYLLTNPESLKNAREEVDRVIGAGNITADHLSKLPYIDAVLREALRLNPTGPAITLGAREDTTLGGKYAVKKGEPVLCMFHNIHRDKKVYGEDADEWKPERMMDENFNKLPKNAWKPFGNGTRGCIGRAFAWQESQLVIASILQNFDLTLDNPDYKLEIVETLTIKPGNFYVRAKLRSGRTPRELCGFSNPISTNIQIKNGTIAPANDGQVGNSTPVTILYGSNSGTCEALAHRLARDAPSYGYSVTTVATLDSVIGILPRAKDELVVIITCSYDGLPADNAVRFCNWLKTLDEDALGGMPFAVFACGHHDWAKTFYKVPIMIDELLARAGAHRVAQMGKANSAVSDMFSDLENWEDEHLWSSSSAAGNETVDNVARTEVKQDITITNPRARALHHNAVECIVSETHKLSESGSALKYHVEIQLPANMKYAPGDHLSVLPINPRQNVRRALARFHLAGDSVLSVARIGHMGTLGQETLSAFDVFASYVELSQPATRRNIATLLSVTPEGEGRYELAELGGAAFESQIRDMRVSVLDLLERYKAIKLCVGAFIDMLPPLRVRTYSISSSALWKPSHASLTISVLAQPALSGQGSFLGVASNFLADLVPGDAVHFTIRPCKKQFHLPDDASAHPIIMVAAGSGIAPFRGFIQDRALQRRNGVQLQPAILFFGCRGSKQDDLYRQELDEFEAEGVVSVRRAFSGEETVSISESRMYVQDRMWADRAEVIQLWNLGAKIYVCGGINMADGVREIFNEIVGPTEVDGKRGAESLNKLSEETMSARYVAEIFSQT
B2: the “ω-7 hydroxylase activity C12FA” value was “−” and the “ω-7 hydroxylase activity C12ol” value is “−”.

B3: CYP505Hv: CYP505 cytochrome P450 monooxygenase from Hypocrea virens, SEQ ID No 10 (protein, listed as Hypocrea virens)
chain: MKPAKNPNLVEIPKPKGLPVIGSLHHIDLESPLFSLIELIQPLGPICQLTFGSELNIFVSSIELLNELCDESRFQKIVTAELEKLRHVVHDGLFTARNEERNWEIAHRILMPVFGTIKIREMFPEMKDLAQQLCLKWARYGEEYVIDVTADFTRLTLDTLALCTMGFRFNSFHNGTVLHPFVDSMVRTLKEASVQAALPNFINSLRKKSWRRYEKDTAFMRKLCQDIIDKRKSQTDTDSHDLLAALLRGRDPKTGEGLSDDSIIDNMLTFLIAGHETTSGLLSFAMYYLLANPQTMEKARQEVDEVSQGSPIAVEHLSKLPYLNAVLKETLRLQPTAPGFILSSPKDEIIGGKYLIPANIPIGVLLHMVHLDKAVYGEDAAEFKPERMLDENFNKLPPNSWKPFGNGMRGCIGRAFATQEALLIVAMLLQSFTFEMADPGYKLKIKETLTVKPDNFRMKAKLRRGGTATDFQRELQSLGSVGAKLSSTPSVTSAQTGGGDKKPLTILYGSNSGTCEALAYRLASDATLHGFYARKIAPLNAARNSLPKSEPVIILAASYDGLPSDNAEEFFDWLNTAEKDSLKGVSYSVFGCGHRDWVATFQRVPILIDDLLQRAGAERFANRGLADSAVMDLFVELEKWTTDSVWPAISQTDGKQDNDGEGKLISSLLKVEFSQPRQLQQYSHLVEATVMESRSLTTPSAIGKKMHVDIQLPSGVSYHPGDHLLVLPVNPIRNVKRVLSRFHLTWDTIVRASGNESVRIPIETAMTVHELLSSYFELAQPATPRDIRVLAAAAEDEATKQVLNNLATTSYLEDIQEKKTSLLDLLEKFPEISIAFGTYLTLLPSLRLRTYSISSSPSWNSSRATLTLSVLDEPATTPGSKRYLGVASNHLAGLTPGDLIHVATRPVKGIFQMPADLSKAPTIMIAAGAGLAPFRGFIQERAYQQQNGVQLAPAALFFGCRSSHDDLYRSELDAFESSGVIRVFRAYSREDVGSKSNTRKGYVQDSLQAEKDVFVQLWNAGAKVYVCGSVKMASQVKDLVANLVYTAEPMDAQKEFTPQEWFKRFEKTRYAAEIFT
Consider B3, for which the “ω-7 hydroxylase activity C12FA” value was “−” and the “ω-7 hydroxylase activity C12ol” value is “−”.

B4: CYP505St: CYP505 cytochrome P450 monooxygenase from Setosphaeria turcica, Seq ID 12 in Table 2 (protein, listed as Setosphaeria turcica)
chain: MSAPNRQLVPIPGPSALPIVGNTFDLDLDASIQSLVNMFEEYGPVFQLTIAGHKQIFVGNVQLTNEVCDESRFCKIVFSGLELLRSAVHDGLFTAHEGERNWDIAHRILMPVFGPTKIRGMFDQMNDIAQQLCLKWGRYGPTFPIEVTEDFTRLTLDTIALCAMGYRFNSFYRDNMHPFVDRMNRFLKDTNTQSGLPDLFNSLWLHAKKRNKEDIKAMREFSQEVVDQRRQNPVDADDLLNALLHQTDPKTGEGLSDSSIIDNMITFLVAGHETTSGLLSFAFYYMLKNPWAMEKAQQEVDNVIGTERVTVNHLSKLEYLNAILRETLRLMPTAPAFTVGALKDDVIGGKYAVKKGEPINPILQAVHCDKEVYGPDATEWKPERMLEEGFHKLPANSWKPFGNGKRGCIGRAFAWQEALLVVAVLLQSFTFTEDDPSYQLRIREALTIKPDGFKIRATLREHKTTAGMVPESVQSLRQAQKSGKPGNSKSSANESMVGQGNGRSVSIFYGSNSGSCESLANLLASDCAKYGFSVQTTDALDAARENFTSNQIVLIVASTYDGKPADNATEFVNWLKSLTGEPLKGVSYAVFGCGHHDWATTFYKIPILIDELLEQRGAQRVAPRGAANAAVSDLFSDLEKWEESILWPALGLTPALLESQGDTQPRLTISFQRPYTQRKEFLEATVTSASELTTSASPSRKCHMELQLPQDMTYNTGDYLAVLPLNPLSNVQRALSRFHLAWDSVLVIEATGPTQLPTATPISVADLFGAYVELSQPATPRNIRALAGAASDEPTKQALLKLAEDDFATQVRDKRLSVLDLLGQYESVALPVEAFIEMLLPLRPRTYSISSAPQWNPSHASITWSIIDTVSWSGHGRFLGVASNHLYDLSPGAVVRVSVRRSNPAFHPPQDPNSYPIIMIASGSGLAPFRGFIQERALQQKAGMTLAPALLFFGCRGRDDDLHRAEMDDFEKSGVVRVMRAYSKAPNEPDAFGCAYIQERVWSERKEFRELWNRGATVFVCGGTKMSEAIKDVFIKIAYGNAGQDDNKSSRDWFASLDPHRYVAEVFN
In the case of B4, the “ω-7 hydroxylase activity C12FA” value is recorded as “−” and the “ω-7 hydroxylase activity C12ol” value was “−”.

For the origin of these results see patent US10975360B2, “Process for the modification of alkanes, fatty acids and fatty alcohols” (priority 2016, dated 2021).
